Data as given in EP4480964A1, “TRANSFERRIN RECEPTOR-BINDING MOLECULES, CONJUGATES THEREOF AND THEIR USES TO PREVENT OR TREAT MUSCULAR DISEASES” (Vect-Horus, priority 2023, dated 2024).
Values belong to the molecule of their own block, whether it stands above or below them.

Key:
mTfR = target: T1, mTfR (Mus musculus, UniProt Q62351); assay: Competition assay with fluorescent reference C5-Alexa680 on living Neuro-2a cells; assay type: binding; settings: cells expressing murine TfR (Neuro-2a), C5-Alexa680 100 nM, 3 hrs at 37°C; Ki similar or lower than free VHHs
T1 construct: living cells expressing the receptor of interest, namely murine neuroblastoma Neuro-2a cells (N2a); endogenous in cells; host or cells: Neuro-2a (N2a) murine neuroblastoma cells
T1 sequence (Q62351 whole entry): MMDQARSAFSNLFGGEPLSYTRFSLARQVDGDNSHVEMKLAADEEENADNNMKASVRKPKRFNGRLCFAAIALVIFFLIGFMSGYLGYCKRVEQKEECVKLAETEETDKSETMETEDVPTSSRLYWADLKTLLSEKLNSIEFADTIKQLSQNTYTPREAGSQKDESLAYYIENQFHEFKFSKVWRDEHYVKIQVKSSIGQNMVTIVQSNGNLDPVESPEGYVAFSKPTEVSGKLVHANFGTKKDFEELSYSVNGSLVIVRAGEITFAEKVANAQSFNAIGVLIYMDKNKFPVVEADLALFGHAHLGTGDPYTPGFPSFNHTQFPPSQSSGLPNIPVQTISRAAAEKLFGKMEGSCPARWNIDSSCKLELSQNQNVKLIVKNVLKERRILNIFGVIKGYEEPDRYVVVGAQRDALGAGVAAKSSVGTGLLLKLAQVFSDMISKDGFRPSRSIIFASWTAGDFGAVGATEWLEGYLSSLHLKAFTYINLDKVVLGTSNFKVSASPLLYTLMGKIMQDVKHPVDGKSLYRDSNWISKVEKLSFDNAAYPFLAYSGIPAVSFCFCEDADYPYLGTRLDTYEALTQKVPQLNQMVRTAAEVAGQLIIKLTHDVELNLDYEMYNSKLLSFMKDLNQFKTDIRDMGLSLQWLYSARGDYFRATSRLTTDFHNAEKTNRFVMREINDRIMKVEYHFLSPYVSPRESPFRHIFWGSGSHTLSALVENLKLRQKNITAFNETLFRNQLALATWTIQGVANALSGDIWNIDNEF
Procedure: (§1) The binding of VHH-Oligo conjugates to mTfR, rhTfR and hTfR was evaluated using a competition assay on living cells expressing the receptor of interest, namely murine neuroblastoma Neuro-2a cells (N2a), CHO cells genetically engineered by the inventors to stably express the macaque rhesus TfR fused to the eGFP protein in C-terminal (CHO-rhTfR-GFP cells), or human breast ductal carcinoma MCF-7 cells, respectively. MCF-7 and N2a cells were grown in Dulbecco's Modified Eagle Medium (DMEM) GlutaMAX supplemented with 10% v/v FBS in 5% CO2 at 37°C. CHO-rhTfR-GFP cells were grown in Ham F12 GlutaMAX supplemented with 10% v/v FBS in 5% CO2 at 37°C. Cells were seeded two days before experiments in 96-well plates at a density of 50.000 cells/well. On the day of the experiment, free VHHs or VHH-Oligo conjugates diluted at various concentrations in DMEM supplemented with 1% bovine serum albumin (BSA) (MCF-7 and N2a cells) or in Ham F12 supplemented with 1% BSA (CHO-rhTfR-GFP cells) were co-incubated at various concentrations on each cell line during 3 hrs at 37°C with a subsaturating concentration of the fluorescent reference compound C5-Alexa680 (100 nM on N2a and CHO-rhTfR-GFP cell lines, 10 nM on MCF-7 cells). After treatment, cells were washed with D-PBS and dissociated by incubating with Trypsin/EDTA for 5 mins at 37°C, before the addition of cold culture media (4°C) to inhibit Trypsin activity. Resuspended cells were transferred in a 96-deepwell plate (V-bottom) containing 1% fetal bovine serum (FBS) / 0.02% sodium azide in phosphate-buffered saline (PBS) and then centrifuged for 5 min at 2000 rpm at 4°C. After removing the supernatant, 5 mM EDTA in D-PBS and 4% paraformaldehyde (PFA) (v/v 1:1) were added into wells to fix cells for 15 min at room temperature. PFA was removed by centrifugation (5 min, 3000 rpm, 4°C) and cells were resuspended with 5 mM EDTA in D-PBS. Then the cellular A680-associated fluorescence signal was quantified using an Attune™ NxT flow cytometer (Thermo Fisher Scientific) equipped with Attune™ NxT v3.1.2. Experimental data (experimental triplicates) were fitted with GraphPad Prism® software using a nonlinear fit to determine the apparent Ki inhibition constants. Graphs of Figure 1 show representative inhibition curves and tables show means ± SD of at least 2 independent experiments.

hTfR = target: T2, hTfR (Homo sapiens, UniProt P02786); assay: Competition assay with fluorescent reference C5-Alexa680 on living MCF-7 cells; assay type: binding; settings: cells expressing human TfR (MCF-7), C5-Alexa680 10 nM, 3 hrs at 37°C; Ki similar or lower than free VHHs
T2 construct: or human breast ductal carcinoma MCF-7 cells, respectively; endogenous in cells; host or cells: MCF-7 human breast ductal carcinoma cells
T2 sequence (P02786 whole entry): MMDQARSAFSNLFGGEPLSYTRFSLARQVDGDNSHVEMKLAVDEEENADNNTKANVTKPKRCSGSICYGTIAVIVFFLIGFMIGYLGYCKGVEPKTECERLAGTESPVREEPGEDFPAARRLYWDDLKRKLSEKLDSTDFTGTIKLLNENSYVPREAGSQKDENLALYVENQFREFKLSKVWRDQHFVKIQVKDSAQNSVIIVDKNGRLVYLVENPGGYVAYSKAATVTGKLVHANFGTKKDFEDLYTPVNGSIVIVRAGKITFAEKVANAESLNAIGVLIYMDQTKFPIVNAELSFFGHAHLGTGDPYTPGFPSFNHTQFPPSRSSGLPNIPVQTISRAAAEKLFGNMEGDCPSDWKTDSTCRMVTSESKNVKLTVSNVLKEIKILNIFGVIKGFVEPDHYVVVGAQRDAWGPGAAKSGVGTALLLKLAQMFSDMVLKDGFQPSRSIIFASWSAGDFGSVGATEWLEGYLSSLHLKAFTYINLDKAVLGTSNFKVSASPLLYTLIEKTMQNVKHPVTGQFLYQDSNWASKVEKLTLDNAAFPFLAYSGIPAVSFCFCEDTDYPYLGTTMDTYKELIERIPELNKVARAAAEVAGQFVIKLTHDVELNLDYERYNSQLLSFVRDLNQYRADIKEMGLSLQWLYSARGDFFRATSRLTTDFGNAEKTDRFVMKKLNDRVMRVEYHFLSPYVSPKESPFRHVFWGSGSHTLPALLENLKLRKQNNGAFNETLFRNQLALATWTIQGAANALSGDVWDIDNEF
Procedure: as §1

rhTfR = assay: Competition assay with fluorescent reference C5-Alexa680 on living CHO-rhTfR-GFP cells; assay type: binding; settings: cells expressing macaque rhesus TfR (CHO-rhTfR-GFP), C5-Alexa680 100 nM, 3 hrs at 37°C; Ki similar or lower than free VHHs
Procedure: as §1

hSOD1 mRNA = assay: Free uptake gene silencing (RT-qPCR) in human cell lines; assay type: cell-based; settings: 3 days, various human cell lines (Figure 2A)
Procedure: Human cell lines MCF-7 (breast ductal carcinoma cells), Igrov-1 (ovarian cancer cells) and MIA PaCa-2 cells (pancreatic cancer cells) and the murine neuroblastoma cell line Neuro-2a were grown in DMEM GlutaMAX supplemented with 10% v/v FBS in 5% CO2 at 37°C. For free uptake experiments, cells were seeded in 96-well plates at a density of 2.000 cells/well. Twenty-four hours later, the medium was removed, and cells were further incubated during 3 days in DMEM supplemented with 1% v/v FBS containing various concentrations of free or conjugated oligos. […] Relative RNA expression levels were quantified by RT-qPCR using the TaqMan™ Fast Universal PCR Master Mix (2X) no AmpErase™ UNG kit (Applied Biosystems) and commercially available TaqMan™ probes for murine SOD1, human SOD1 or human MALAT-1 genes (Applied Biosystems). Expression data were analyzed using the DDCq method normalized to the expression of reference RpL 13 or GAPDH genes, based on raw quantification cycle (Cq) values (Bustin et al.) and are presented as mRNA levels relative to untreated cells. Experimental data (experimental triplicates) are presented as means ± standard deviation (SD) and were analysed with GraphPad Prism® software using a three-parameter log(inhibitor) vs. response nonlinear regression to determine the IC50. […]

SOD1 mRNA = assay: In vivo mRNA knock-down by VHH-siSOD1h conjugate in non-human primates; parameters: species or system olive baboons (Papio Anubis)
Procedure: VHH-siSOD1h conjugates targeting the human and non-human primate (NHP) SOD1 gene were assessed for their ability to mediate SOD1 mRNA knock-down in muscle tissues of olive baboons (Papio Anubis). PBS vehicle (control) or a TfR-binding VHH-siSOD 1h conjugate was administered as a single intravenous (IV infusion, 30 min) in olive baboons (males, 10-17-month-old, 2.6-4.5kg) at the dose of 5 mg/kg (siRNA molar equivalent). At indicated times following administration, approximately 100 mg samples of gastrocnemius, quadriceps and tibialis anterior muscle were withdrawn under general anesthesia, snap-frozen in 10 vol. ofNucleoProtect RNA stabilization reagent (Macherey-Nagel) and stored at -20°C. […] RNA samples were analyzed and dosed using a Fragment Analyzer RNA kit in a Fragment Analyzer system (Agilent). Relative RNA expression levels were quantified by RT-qPCR using the TaqMan™ Fast Universal PCR Master Mix (2X) no AmpErase™ UNG kit (Applied Biosystems) and commercially available TaqMan™ probes for […] and RpL13 genes (Applied Biosystems). Expression data were analyzed using the DDCq method normalized to the expression of the reference RpL13 gene, based on raw quantification cycle (Cq) values (Bustin et al.). The results are expressed as means ± standard error of the mean (SEM) and are presented as mRNA levels relative to the control animals injected with PBS. […]

B3: B8-siSOD1m: VHH-Oligo conjugate of VHH B8 and siSOD1m (conjugate)
VHH: EVQLVESGGGVVQPGGSLRLSCAASGEIFSINFMRWYRQAPGKQREWVAGFTRDGSTNYPDSAKGRFTISRDNAKNTVYLQIDSLKPEDTAVYYCYMLDTWGQGTQVTVSS
modifications: left off: things letters cannot carry; small tags and cut ends
- inhibition of the binding and uptake of the reference compound (mTfR): concentration-dependent inhibition
- inhibition of the binding and uptake of the reference compound (hTfR): concentration-dependent inhibition
- inhibition of the binding and uptake of the reference compound (rhTfR): concentration-dependent inhibition

B4: B8-siSOD1h: VHH-Oligo conjugate of VHH B8 and siSOD1h (conjugate)
VHH: B3 VHH
modifications: left off: things letters cannot carry; small tags and cut ends
- inhibition of the binding and uptake of the reference compound (mTfR): concentration-dependent inhibition
- effect on hSOD1 mRNA levels (hSOD1 mRNA): potent and concentration-dependent hSOD1 mRNA downregulation
- inhibition of the binding and uptake of the reference compound (hTfR): concentration-dependent inhibition
- inhibition of the binding and uptake of the reference compound (rhTfR): concentration-dependent inhibition

Now from value to molecule, other results behind:

- inhibition of the binding and uptake of the reference compound (mTfR): concentration-dependent inhibition
- inhibition of the binding and uptake of the reference compound (hTfR): concentration-dependent inhibition
B1: C5-siSOD1m: VHH-Oligo conjugate of VHH C5 and siSOD1m (conjugate)
VHH: EVQLVESGGGVVQPGGSLKLSCVASGTDFSINFIRWYRQAPGKQREFVAGFTATGNTNYADSMKGRFTISRDNTKNAVYLQIDSLKPEDTAVYYCYMLDKWGQGTQVTVSS
modifications: left off: things letters cannot carry; small tags and cut ends
- inhibition of the binding and uptake of the reference compound (rhTfR): concentration-dependent inhibition

- inhibition of the binding and uptake of the reference compound (mTfR): concentration-dependent inhibition
- inhibition of the binding and uptake of the reference compound (hTfR): concentration-dependent inhibition
B2: C5-siSOD1h: VHH-Oligo conjugate of VHH C5 and siSOD1h; Figure 12 legend: VHH is C5 (conjugate)
VHH: B1 VHH
modifications: left off: things letters cannot carry; small tags and cut ends
- effect on hSOD1 mRNA levels (hSOD1 mRNA): potent and concentration-dependent hSOD1 mRNA downregulation
- knock-down of SOD1 mRNA (SOD1 mRNA; all muscle tissues tested (gastrocnemius, quadriceps, tibialis anterior), single IV infusion 5 mg/kg (siRNA molar equivalent) (Figure 12)): 60%
- duration of knock-down (SOD1 mRNA; single IV infusion 5 mg/kg (siRNA molar equivalent)): more than three months
- inhibition of the binding and uptake of the reference compound (rhTfR): concentration-dependent inhibition
